# Measured values as given in paper PMC9287321 (Scientific Reports, 2022).
# B1: anti-AFP TCRm antibody, Fab fragment (Fab, V domains shown)
# VH: EVQLVQSGAEVKKPGESLTISCKASGYSFPNYWITWVRQMSGGGLEWMGRIDPGDSYTTYNPSFQGHVTISIDKSTNTAYLHWNSLKASDTAMYYCARYYVSLVDIWGQGTLVTVSS
# VL: QSVLTQPASVSGSPGQSITISCTGTSSDVGGYNYVSWYQQHPGKAPKLMIYDVNNRPSEVSNRFSGSKSGNTASLTISGLQAEDEADYYCSSYTTGSRAVFGGGTKLTVL
# notes: Fab cut by papain from human IgG1; also called TCR mimic antibody; TCRm Fab fragment
# Molecular target: T1, AFP_(158–166) peptide complexed with HLA-A*02:01 (Homo sapiens, HLA-A*02:01)
# T1 construct: HLA-A*02:01 heavy chain, soluble recombinant; β2-microglobulin, recombinant; alpha-fetoprotein (AFP) peptide, residues 158–166; also called AFP/HLA-A*02; AFP/HLA-A*02 complex; copies: + +
# Assay: SPR; Biacore T200, CM5 chip; AFP/HLA-A*02 amine coupled (100–200 RU); kinetic titration, five injections of increasing TCRm, 100 μL/min, 25 °C; 1:1 binding model; mean of three experiments
# Settings: both partners purified
binder,measurement,value
B1,Kd,7 nM
